Experimental data: the nanobody polyreactivity screen of Harvey et al. (2022)

Assay: yeast display, Sf9 membrane polyspecificity reagent, FACS + sequencing; frameworks hold sequencing errors
Method in brief: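 Sorting gates, low and high (top ~1%), were placed on anti-HA fluorescence to track expression and on streptavidin fluorescence to track reagent binding. A clone's polyreactivity label is taken from the gate it came out of. The reagent was 10% biotinylated, detergent-solubilized Sf9 membrane, applied for 1 hour at 4 °C to galactose-induced yeast display cells.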

Row | Sequence | polyreactivity (PSR sort gate)
1 | QVQLVESGGGLVQAGGSLRLSCAASGGTFYIYVMGWYIQAPGKERELVAAITSGDSTNYADSVKGRFTISRDNAKNTVYLQMNSLKPEDTAVYYCATGYWELRYDYWGQGTQVTVSS | low polyreactivity
2 | QVQLVESGGGLVQAGGSLRLSCAASGFQYGMGWYRQAPGKERELVAAISRDGSTNYADSVKGRFTISRDNAKNTVYLQMNSLKPEDTAVYYCAVDFYFLYGWGQGTQVTVSS | low polyreactivity
3 | QVQLVESGGGLVQAGGSLRLSCAASGSICAYYAMGGYRQAPGTERELVAAISQSGGSTYYADSVKGRVTISRDNAKNTVYLQMNSLKPEDTADYYCAARFRYGYSGYRYDYWGQGTQVNVSS | high polyreactivity
4 | QVQLVESGGGLVQAGGSLRLSCAASGSTFYVNAMGWYRQAPGKERELVAAIRSSAGNTTYADSVKGRFTISRDNAKNTVYLQMNSLKPEDTAVYYCAAETFYDYGGYDYWGQGTQVTVSS | low polyreactivity
5 | QVQLVESGGGLVQAGGSLRLSCAASGSIIFRYAMGWSRQAPGKERELVARISWGGGRTYYADSVKGRFTISRDNAQNTVYLQMNSLKPEDSAVYYCNRAFWVNPGGFDYWGQGTQVTVSS | high polyreactivity
6 | QVQLVESGGGLVQAGGSLRLSCAASGFTFHRNAMGWYRQAPGKERELVAAISTRGGSTAYADSVKGRFTISRDNAKNTVYLQMNSLKPEDTAVYYCNTRYVGQRSTWVDQVRRYDYWGQGTQVTVSS | high polyreactivity
7 | QVQLVESGGGLVQAGGSLRLSCAASGRTFTPYAMGWYRQAPGKERELVAAINSDGSTNYADSVKGRFTISRDNAKNTVYLHMNSLKPEDTAVYYCAAGYSLEGDYWGQGTQVTVSS | low polyreactivity
8 | QVQLVESGGGLVQAGGSLRLSCAASGSTFFYNAMGWSRQAPGKERELVASINDRAGRTYYADSVKGRFSISRDNAKNTVYLQMNSLKPEDTAVYYCAAEPWYKFDDDFWGQGTQVTVSS | low polyreactivity
9 | QVQLVQSGGGLVQAGGSLRLSCAASGSTFYQYAMGWYRQSPGKERELVAAISRSGSTNYADSVKGRFTHSRDNAQNTVYLQMNSMKPEDSAVYYCAARLGTRQYKMDYWGQGTQVTVSS | high polyreactivity
10 | QVQLVESGGGLVQAGGSLRLSCAASGFTFTRNAMGWYRQAPGKERELVAAISGSGGSTYYADSVKGRFTISRDNAKNTVYLQMNSLKPEDTAVYYCAAPLPWAYAYDYWGQGTQVTVSS | high polyreactivity
11 | QVQLVESGGGLVQAGGSLRLSCAASGFTFRDYAMGWYRQAPGKERELVATITWRVGSTFYADSVKGRFTISRDNAKNTVYLQMNSLKPEDTAVYYCADEDSNVVAYDYWGQGTQVTVSS | low polyreactivity
12 | QVQLVESGGGLVQAGASLRLSCAASGRIYPVYTMGWYRQAPGKERELVAAITSSGGSTYYADSVKGSFTISRDNAKNTVYLQMNSLKPEDTAVYDCAKRAGWAYYYWGQGTQVTVSS | high polyreactivity
13 | QVQLVESGGGLVQAGGSLRLSCAASGITFNPYTMGWYRQAPGKERELVADINRGGDTTYADSVKGRFTISRDNAKNTVYLQMNSLKPEDTAVYYCAKRLVQWMDYWGQGTQVTVSS | low polyreactivity
14 | QVQLVESGGGLVQAGGSLRLSCAASGSTFSLYTMGWYRQAPGKERELVAAITWTGGSTYYADSVKGRFTISRDNAKNTVYLQMNSLKPEDTAVYYCAAVSRLTGSRESQLIRSRMYYWGQGTQVTVSS | high polyreactivity
15 | QVQLVESGGGLVQAGGSLRLSCAASGRIFRSNAIGWYRQAPGKERELVSVITWCGGSTYYADSVKGRFTITRDTAKNTVYIQMNSLKPEDTAVYYCAKRRAAVNGRSYYYYWGQGTQVTVSS | high polyreactivity
16 | QVQHEESGGGLVQAGGSLRLSCAASGIIFYYYALGWYRQAPGKERELVAAITGTGSRTYYADSVKGRFTISRDNAKNTVYLQMNSLKPEDTAVYYCNARSFATGSKVPARGYWGHGTQVTVSS | high polyreactivity
17 | QVQLQESGGGLVQAGGRLRLSCAASGTISGPHVMGWYRQAPGKEREFFAAINVGANTYYADNVKGRYTISRDNAKNTVYLQMNSLKPEDTAVYYCAAVYYGDIGHEYWGQGTQVTVSC | low polyreactivity
18 | QVQLVESGGGLFQSGGSLRLSCAASGITFRYYAMGWYRQAPGKERELVAAISSGGSTNYADSVKGRFTISRDNAKNSVYLQINSLKPEDTAVYYCYRRVYSRRYYGYYYWGQGTQVTVSS | high polyreactivity
19 | QVQLVESGGGLVQAGGSLRLSCAASGITFLHYAMGWYRQAPGKERELVARITYSGSSTYYADSVKGRFTISRDNAKNTVYLQMNSLKPEDTAVYYCNARASWGRWSRTGTPRYDYWGQGTQVTVSS | high polyreactivity
20 | QVQLVESGGGLVQAGGSLRLSCAASGRNFYYAMGWYRQEPGKERELVASITWSGGSTYYADSVKGRFTISRDNAKNTVYLQMNSLKPEDTAVYYCNADDLYTWYVEYNYWGQGTQVTVSS | low polyreactivity
21 | QVQLVESGGGLVQAGGSLRLSCAASGFTFYYYAMGWYRQAPGKERELVAAISTRDGNTYYADSVKGRFTISRDNAKNTVYLQMNSLKPEDTAVYYCAADYFRYYPYDYSGQGTQVTVSS | low polyreactivity

Row | Sequence | polyreactivity (PSR sort gate)
22 | QVQLVESGGGLVQAGGSLRLSCAASGFIFSYYAMGWYRQAPGKERELVAAISRNGGRTYYADSVKGRFTISRDNAKNTVYLQMNSLKPEDTAVYYCAATTYRTSSYIRYGSPKHDDYWGQGTQVTVSS | high polyreactivity
23 | QVQQQESGGGLVQEGGSLRLSCAASGNISPPADMGWYRQAPGKERELVASIGTGGTTNYADSVKGRFTISRDNAKNTVYLQMNSLKPDDTAVFYCAAVRYEYNPYDYWGQGTQVTVSS | low polyreactivity
24 | QVQLVESGGGLVQAGGSLRLSCAASGSILWLNAMGWYRPAPGKERELVADITRGGSTYYADSVKGRFTISRDNAKNTVYLQMNSLKPEDTAVYYCAADAYTGQIPYYYFEHYYWGQGTQVTVSS | high polyreactivity
25 | QVQLVESGVGLVQAGGSLRLSCAASGFIFGVTTMGWYRLAPGKERELVAAISTLASSTFDADSVKGRFTISRDNAKNTVYLQMNSLKPEDTAVYYCAVDLNWFFSFGLDYWGQGTQLTVSS | low polyreactivity
26 | QVQLVESGGGLVQAGGSLRLSSAASGSIFYVYAMGWYRQAPGKERELVAAISGGGGSTYYADSVKGRFTISRDNAKNTVYLQMNSLKPEDTAVYYCAADLSGGPYLGGYDYWGQGTQVTVSS | high polyreactivity
27 | QVQLVESGGGLVQAGGSLRLSCAASGYIFDPNAMGWYRQAPGKERELVAAISGSGTSTYYADSVKGRFTISRDNAKNTVYLQMNSLKPEDTAVYYCAAAHDAGPVRYYYWGQGTQVTVSS | low polyreactivity
28 | QVQLVESGGGLVQAGGSLRVSCAASGSTFRKYAMGWYRQAPGKEREFVAAITSSGGSTYYADSVKGRFTISRDNAKNTLYLQMNSLKPEDTAVYYCAARGDSVSTAYNYWGQGTQVTVSS | high polyreactivity
29 | QVQLVESGGGLVQAGGSLRLSCAASGLIFPVYTLGWYRPAPGKERELVAAITSSGDSTYYADSVKGRFTISRDNAKNTVYVQMNSLKPEDTAVYYCAARLVEKYGGTYSFDYWGQGTQVTVSS | low polyreactivity
30 | QVQLVESGGGLVQAGGSLRLSCAASGRIFGDYAMGWYRQAPGKERELVADITWSGGSTYYADSVKGRFTISRDNAKNTVYLQMNSLKPEDTAVYYCNADVWFYYTFDYWGQGTQVTVSS | low polyreactivity
31 | QVQLVESGGGLVQAGGSLRLSCAASGSTFVGNAMGWYRQAPGKERELVATMSNSGGRTYYADSVKGRFTISRDNAKNSVYLQMNSLKPEDTAVYFCNAQFDLTFRGTGDYWGQGTQVTVSS | low polyreactivity
32 | QVQHVESGGGLVQAVGSLRLSCSASGITFHYYTMGWYRQAPGKEREFVAAISKSGGRTYYADSVKGRFTISRDKAKNTVYLQMNSLKPEDTAVYYCAGLYYFNGDYWGEGTQVTVSS | high polyreactivity
33 | QVQLVESGGGLVQAGGSLRLSCAASGSIFVYYTMGWYRQAPGKESELVAAISISGTSTYYADSVKGRFTISRDNAKYTVYLQLNSLKPEDTAVYYCAADTFYGEDYWGQGTQVTVSS | low polyreactivity
34 | QVQLVESGGGLVQAGGSLRLSCAASGSNFVVYAMGWYRQAPGKERELVAAISWGIGSTYYADSVKGRFTISRDNAKNTVYLHMNSLKPQDTAVYYCAADTDIVLYDYWGQGTQVTVSS | low polyreactivity
35 | QVQLVESGGGLVQAGGSLRLSCAASGLTFASNALGWYRQAPWKERELVAGISRTGTTTYYADSVKGRFTISRDNAKNTVYLQMNSLKPEDTAVYYCAASKQAVKYRSQRYYYWGQGTQVTVSS | high polyreactivity
36 | QVQLVESGGGLVQAGGSLRLSCAASGSIFDSYVMGWYRQAPGKERELVAAITYSGGSTYADSVKGRFTISRDNAKNTVYLQMNSLKPEDTAVYYCAAASYFYLYLLEDYWGQGTQVTVSS | low polyreactivity
37 | QVQLVESRGGLVQAGGSLRLSCAASGPTFRNTAMGWSRQAPGKDREFVAVISNTGGSTYYADSVKGRFTISRDNAKNTVYLQMNSLKAEDTAVYYCGVRPRYSQYYYWGQGTQVTVSS | high polyreactivity
38 | QVQLVESGGCLVQAGGSLRLSCAASGSSFSRYTMGWYSQAPGKERELVAVISDSSGRTYYADSVKGRFTISRDTAKNTVYLQMNSLKPEDTAVYYCAAEYSDIYEYCGQGTQVTVSS | low polyreactivity
39 | QVQLVESGGGLVQAGGSLRLSCAASGLIFDTYAMGWYRQAPGKERELVADITWSGGSTYYADSVKGRFTISRDNAKNTVYLQMNSLKPEDTAVYYCAADSVSLFYWDQRYPDEYDYWGQGTQVTVSS | low polyreactivity
40 | QVQLVESGGGLVQAGGSLRLSCAASGRIFPHYSMGWYRQAPGKERELVAAISWSGSSTYYADSVKGRFTISRDNAKNTVYLQMNSLKPEDTAVYYCNAVRRGIGYDYGYWGQGTQVTVSS | high polyreactivity
41 | QVQLVESGGGLVQAGGSLRLSCAASGGTFSYYAMGWYRQAPGKERELVAAISKRGGSTYYADSVKGRFTISRDNAKNTVYLQMNSLKPEDTAVYYCARGYSWSVGYPRVQDMDYWGQGTQVTVSS | high polyreactivity
